Reference: US20220281949A1

Biological target: DR1-restricted TCR HA1.7
Experiment: flow cytometry: HA1.7-transduced primary CD4+ T cells stained with PE wild-type DR1 dextramer and anti-CD4

## wild-type DR1 dextramer specific to Flu-HA306-318 (peptide-MHC)
  percent of cells in the dextramer+ CD4+ quadrant: 30.4%
